Measured values published in patent US20140170136A1 (NVIP, published 2014).

Tests used:
murine NGF = target: T1, murine NGF (mouse, UniProt P01139 122-241); experiment: ELISA: CHO supernatant on NGF, goat anti-equine IgG-HRP, OD450, against mock supernatant
T1 construct: Coated on the ELISA plate; also called mouse NGF
Experimental: Equinised heavy and light chain cDNAs were transfected into CHO cells, the supernatants harvested and reacted in ELISA format with either equine or murine NGF. Following incubation and wash steps, the bound equine antibody was detected by reactivity with a goat-anti equine IgG specific polyclonal antibody linked to horseradish peroxidase (HRP) and developed using TMB. The optical density of the resulting product was measured at 450 nm and compared with that from mock empty vector transfected supernatant (denoted as “Mock” in FIG. 1). The results are shown in the graph of FIG. 1. Binding to mouse NGF is shown for the HC2 (IgG2 constant domain) equinised antibody (termed eqN-HC2+eqN-kLC-1). In the second part of the graph, binding of the eqN-HC2+eqN-kLC-1 antibody comprising the eqN-kLC-1 light chain and the eqN-HC2 (IgG2) constant chain to equine NGF is shown.

[1] = target: T2, complement C1q (from human serum) (human, UniProt P02745 23-245; P02746 28-253; P02747 29-245); experiment: ELISA: antibody captured on NGF-coated plate, human serum 1/100, bound C1q detected with anti-C1q-HRP, OD450
T2 construct: mature; Native C1q in human serum diluted 1/100
T2 sequence (P02745 23-245, chain 1 of 3): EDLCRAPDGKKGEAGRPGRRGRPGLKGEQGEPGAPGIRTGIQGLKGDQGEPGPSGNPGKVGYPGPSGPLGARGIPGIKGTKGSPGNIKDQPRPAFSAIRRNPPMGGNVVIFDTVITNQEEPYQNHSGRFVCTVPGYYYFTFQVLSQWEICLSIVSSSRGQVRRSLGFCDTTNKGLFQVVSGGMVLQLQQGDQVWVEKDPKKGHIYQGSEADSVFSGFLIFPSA
T2 sequence (P02746 28-253, chain 2 of 3): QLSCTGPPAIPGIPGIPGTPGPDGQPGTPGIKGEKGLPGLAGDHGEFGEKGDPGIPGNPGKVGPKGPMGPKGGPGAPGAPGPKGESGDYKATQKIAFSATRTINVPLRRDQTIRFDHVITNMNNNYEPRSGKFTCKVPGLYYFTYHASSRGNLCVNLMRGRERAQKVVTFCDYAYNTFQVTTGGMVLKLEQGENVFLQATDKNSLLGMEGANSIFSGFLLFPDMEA
T2 sequence (P02747 29-245, chain 3 of 3): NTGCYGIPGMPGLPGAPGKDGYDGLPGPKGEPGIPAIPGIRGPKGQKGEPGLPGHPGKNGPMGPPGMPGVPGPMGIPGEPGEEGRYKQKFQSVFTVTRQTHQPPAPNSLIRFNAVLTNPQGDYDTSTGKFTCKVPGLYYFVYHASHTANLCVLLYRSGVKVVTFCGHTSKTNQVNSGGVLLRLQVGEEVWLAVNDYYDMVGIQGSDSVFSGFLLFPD
Experimental: Protein A purified transfectant supernatants from Example 2 were incubated with plates coated with 0.1 ng/mL NGF to capture the antibodies. The plates were washed and then incubated with human serum and bound complement C1q was measured by binding of anti-human C1q polyclonal antibody HRP and developed as above. The binding of C1q to antigen-captured “eqN-HC2+eqN-kLC-1” was compared to a human anti-NGF MAb with human IgG1 Fc domain as positive control and an IgG4 variant as negative control.
Plates were coated with 100 μl/well of 5 μg/ml mouse NGF and blocked with 5% BSA/PBS. Coated wells were incubated for 1 hour at room temperature with cell culture supernatants, containing recombinant equine anti-NGF IgG, diluted in PBS/1% BSA (100 μl/well). The plates were washed and incubated for 1 hour at room temperature with 100 μl/well of human serum diluted 1/100 in veronal buffered saline containing 0.5 mM MgCl₂, 2 mM CaCl2, 0.05% Tween-20, 0.1% gelatin and 0.5% BSA. After washing, plates were incubated with 100 μl of a 1/800 dilution of sheep anti-C1q-HRP (Serotec) in PBS/1% BSA. After washing, plates were developed by the addition of 100 μl TMB substrate (Thermo Scientific). Development was stopped by the addition of 100 μl of 2N H₂SO₄ and absorbance read at 450 nm.

Protein A = target: T3, Protein A (UniProt P38507 37-327); experiment: Protein A affinity chromatography of CHO supernatant; antibody in fractions measured by quantitative NGF ELISA
T3 construct: Column resin

T1 sequence (P01139 122-241 limits assumed): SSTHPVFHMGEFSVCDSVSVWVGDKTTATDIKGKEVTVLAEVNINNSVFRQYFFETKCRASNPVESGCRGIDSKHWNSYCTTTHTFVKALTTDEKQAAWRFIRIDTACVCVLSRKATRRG

B1: eqN-HC2+eqN-kLC-1 (equinised αD11 anti-NGF antibody comprising the eqN-kLC-1 light chain and the eqN-HC2 (IgG2) heavy chain) (antibody)
heavy: QVQLKESGPGLVNPSQTLSLTCTVSGFSLTNNNVNWVRQAPGKGLEWVGGVWAGGATDYNSALKSRATITRDTSKSQVFLQMNSLTSEDTAVYYCARDGGYSSSTLYAMDAWGQGILVTVSSASTTAPKYFQLTPSCGITSDATVALGCLVSDYYPEPVTVSWNSGALTSGVHTFPSVLQSSGLYALSSMVTVPASTWTSETYICNVAHPASSTKVDKRIPPCVLSAEGVIPIPSVPKPQCPPYTHSKFLGGPSVFIFPPNPKDALMISRTPVVTCVVVNLSDQYPDVQFSWYVDNTEVHSAITKQREAQFNSTYRVVSVLPIQHQDWLSGKEFKCSVTNVGVPQPISRAISRGKGPSRVPQVYVLPPHPDELAKSKVSVTCLVKDFYPPDISVEWQSNRWPELEGKYSTTPAQLDGDGSYFLYSKLSLETSRWQQVESFTCAVMHEALHNHFTKTDISESLGK
light: DIVMTQSPASLSASLGETVTIECRASEDIYNALAWYQQKPGQSPKLLIYNTDTLHTGVPSRFSGSGSGTDYSLTINSLQSEDVASYFCQHYFHYPRTFGQGTKLELKRDDAKPSAFIFPPSSEELSSGSASVVCLVYGFYPSGATINWKVDGLAKTSSFHSSLTEQDSKDNTYSLSSTLTLPKADYEAHNVYACEVSHKTLSSPLVKSFKRQDC
notes: Tested as CHO transfectant supernatant or after Protein A purification; also called HC2 (IgG2 constant domain) equinised antibody; equinised HC2 antibody
Does B1 bind (murine NGF)?
Result: binds

Does B1 bind [1]?
Result: no binding

B2: HC6 variant of equinised αD11 (equinised anti-NGF antibody with eqN-HC6 heavy chain and equine kappa light chain) (antibody)
heavy: QVQLKESGPGLVNPSQTLSLTCTVSGFSLTNNNVNWVRQAPGKGLEWVGGVWAGGATDYNSALKSRATITRDTSKSQVFLQMNSLTSEDTAVYYCARDGGYSSSTLYAMDAWGQGILVTVSSASTTAPKVFQLASHSAGTSDSTVALGCLVSSYFPEPVTVSWNSGALTSGVHTFPSVRQSSGLYSLSSMVTVPASSLKSQTYICNVAHPASSTKVDKRIVIKEPCCCPKCPGRPSVFIFPPNPKDTLMISRTPEVTCVVVDVSQENPDVKFNWYVDGVEAHTATTKAKEKQDNSTYRVVSVLPIQHQDWRRGKEFKCKVNNRALPAPVERTITKAKGELQDPKVYILAPHREEVTKNTVSVTCLVKDFYPPDINVEWQSNEEPEPEVKYSTTPAQLDGDGSYFLYSKLTVETDRWEQGESFTCVVMHEAIRHTYRQKSITNFPGK
light: DIVMTQSPASLSASLGETVTIECRASEDIYNALAWYQQKPGQSPKLLIYNTDTLHTGVPSRFSGSGSGTDYSLTINSLQSEDVASYFCQHYFHYPRTFGQGTKLELKRDDAKPSAFIFPPSSEELSSGSASVVCLVYGFYPSGATINWKVDGLAKTSSFHSSLTEQDSKDNTYSLSSTLTLPKADYEAHNVYACEVSHKTLSSPLVKSFKRQDC
notes: also called HC6 antibody; type 6 (HC6) antibody
Does B2 bind (Protein A)?
Result: no binding
